{
  "source": "the nanobody polyreactivity screen of Harvey et al. (2022)",
  "data": [
    {"test": "yeast display, Sf9 membrane polyspecificity reagent, FACS + sequencing; frameworks hold sequencing errors", "procedure,_shortened": "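A synthetic nanobody library was expressed on Saccharomyces cerevisiae BJ5465 by galactose induction for 36–48 hours. The library was stained for 1 hour at 4 °C with 10% biotinylated, detergent-solubilized Sf9 membrane reagent and enriched with streptavidin microbeads before FACS. Low and high (top ~1%) gates were set on anti-HA fluorescence for expression and streptavidin fluorescence for reagent binding, and each polyreactivity label reflects the gate of origin.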", "values": [
      {"sequence": "QVHLVESGGGLVQAGGSLRLSCAASGIIVYPYAMGWYRQAPGKESELVATISYRGGSTYYADSVKGRFTISRDNAKNTVYLQMNSLKPEETAVYYCAAERGYPKFGYCGQGTQVTVSS", "polyreactivity (PSR sort gate)": "low polyreactivity"},
      {"sequence": "QVHLVESGGGLVQAGGSLRLSCAASGSIFYSYAMGWYRQAPGKERELVASINWSGASTYYADSVKGRFTISRDNAKNTVYLQMNSLKPEDTAVYYCAADWWGYDGRYDYWGQGTQVTVSS", "polyreactivity (PSR sort gate)": "high polyreactivity"},
      {"sequence": "QVQLEESGGGLVQAGGSHRLSCPASGRIFRANAMGWYRQAPGKERELLAAITRSGGSTYYADSVKGRFTISRDNAKNTVYLHMISLKPEDTAVYYWNARTRFDDGYDYWGQGTQVTVSS", "polyreactivity (PSR sort gate)": "high polyreactivity"},
      {"sequence": "QVQLVESGGGLVQAGGSLRLSCAASGFTFNSYAMGWYRQAPGKERELVAAISSSGGRTYYADSVKGRFTISRDNAKNTVYLQMNSLKPEETAVYYCNAVLVSYYSVGYDYWGQGTQVTVSS", "polyreactivity (PSR sort gate)": "high polyreactivity"},
      {"sequence": "QVQLVESGGGLVQAGGSLRLSCAASGRIFYYYAMGWYRQAPGKERELVAVISRGGRTKYADSVKGRFTISRDNAKNTVYLQMNSLKPEDTAVYYCAAYPSYYGDSGLRYDYWGQGTQVTVSS", "polyreactivity (PSR sort gate)": "high polyreactivity"},
      {"sequence": "QVQLVESGGGLVQAGGSLRLSCAASGSIFARNAMGWYRPAPGKERELVAVITTGGRTYYADSVKGRFTISRDNAKNTVYLQMNSLKPEDTAVYYCATRVIYGHSGGYWGQGTQVTVSS", "polyreactivity (PSR sort gate)": "high polyreactivity"},
      {"sequence": "QVQLVESGGGLVQAGGSLRLSCAASGNIFYVYVMGGYRQAPGKERELVASITSGASTYYADSVKGRFTISRDNAKNTVYLQMNSLKPDDTAVYYCAAEALGGAGDYSTLYIYDYWGQGTQVTVSS", "polyreactivity (PSR sort gate)": "low polyreactivity"},
      {"sequence": "QVQLVESGGGLVQAGGSIRLSCAASGRIFNHNSMGWYRQAPGKERELVAAITKSGGSTYYADSVKGRFTISRDNAKNTVYFQINSLITEDTAVYYCATRLWKIPGAMYYWGQGTQVTVSS", "polyreactivity (PSR sort gate)": "high polyreactivity"},
      {"sequence": "QVQLVESGGGLDQAGGSLRLSCAASGFTFVGNAMGWYRQAPGKERELVATITSGGNTKYADSVKGRFTISRDNAKNTVYLQMNSLKPEDTAVYYCAAAKYNYRRFNYWGQGTQVTVSS", "polyreactivity (PSR sort gate)": "low polyreactivity"},
      {"sequence": "QVQLVESGGGLVQAGGSLRLSCAASGRTFAPYVMGWYRQAPGKERELVAAITLSGDSTDYADSVKGRFTISRDNAKNTVYLQMNSLKPEDTAVYYCNVEYLSYTSYFHYYEYDYWGQGSQVTVSS", "polyreactivity (PSR sort gate)": "low polyreactivity"},
      {"sequence": "QVQLVESGGGLVQAGGSLRLSCAASGYTFSKNTMGWYRQAPGKEREFVAAINWSGGSTYYADSVKGRFTISRDNAKNTVYLQMNSLKPEDTAVYYCAARRGGRRGYDYWGQGTQVTVSS", "polyreactivity (PSR sort gate)": "high polyreactivity"},
      {"sequence": "QDQLEESGGGLVQAGGSLRLSCAASGFTFGNNAMGWYRQAPGKERELDAAISKRGSSTYYADSVKGRFTISRDNAKNTVYLLMNSLKPDDTAVYYCAAQTPYYLLYDTGDYLGQGTQVTVSS", "polyreactivity (PSR sort gate)": "high polyreactivity"},
      {"sequence": "QVQLVESGAGLVQAGGSLRLSCADSGSTFQPYAMGWYRQAPGKEREFVATISGSAGSKYYADSVKGRFKISRDNAKNTVYLQKNSLKPEDTAVYYCNADSGWFGYDYWGQGTQVTVSS", "polyreactivity (PSR sort gate)": "low polyreactivity"},
      {"sequence": "QVQLVESGGGLVQAGGSLRLSCAASGRILVPYAMGWYRQAPGKERELVAAINPRGGRTYYADSVKGRFTISRDNAKYTVYLQMNSLKPEDTAVYYCNALAHQYHRYEFGYWGQGTQVTVSS", "polyreactivity (PSR sort gate)": "low polyreactivity"},
      {"sequence": "QVQLVESGGVIVQAGGSLRLSCAASGFTFQAYAKGWYRQAPGKETELVAAITRSGGRTYYADSVKGRFTISRDNAKNTVYFQMKRLKPEDTAVYYCAKLSDSITLYGYWGQGTQVTVSS", "polyreactivity (PSR sort gate)": "high polyreactivity"},
      {"sequence": "QVQLGESGGGLVQAGGSLRLSCAASGIIFISYDMGWYRQAPWKERELVARINWDGGSTYYADSVKGRFTISRDNAKNTVYLQMNSLKPEDTAVYYCAAGFVGTNYPLQGFSYEYWGQGTQVTVSS", "polyreactivity (PSR sort gate)": "low polyreactivity"},
      {"sequence": "QVQLVESGGGLVQAGGSLRLSCAASGRSFSRNAMGWYRQAPGTERELVAGISSGGSTNYADSVKGRFTISPDTAKNTVYIQMNSLKPEDTAVYYCAKDSAEFVTRYDYWGQGTQVTLSS", "polyreactivity (PSR sort gate)": "low polyreactivity"},
      {"sequence": "QVQLVESGGGLVQAGGSLRLSCAASGRIFYPYAMGWYRQAPGKERELVASITSGGGTYYADSVKGRFTISRDNAKNTVYLQMNSLKPEDTAVYYCAAKYYTSWIRYDYWGQGTQVTVSS", "polyreactivity (PSR sort gate)": "low polyreactivity"},
      {"sequence": "QVQHVESGGGLVQAGGSLRLSCAACGRTFTPYAMGWYLQEPGKDREFVAAIDTSGGSTYADSVNGRFTISRDNAKYTVYLQKNSLKPEDTAVYYCGTRGFYSWDYWYLWEYDYWGQGTQVTVSS", "polyreactivity (PSR sort gate)": "low polyreactivity"},
      {"sequence": "QVQLVESGGGLVQAGGSLRLSCAASGFTFYYNAMGWYRQAPGKERELVAAISTGGSTYYADSVKGRFTISRDNAKNTVYLQMNSLKPEDTAVYYCAAKTYGRRWSYYYWGQGTQVTVSS", "polyreactivity (PSR sort gate)": "high polyreactivity"},
      {"sequence": "QVQLVESGGGLVQAGGTLRLSSAASGFTFGNYAMGWYRQAPGKERELVAAISGRSGRTYYADSVKGRFTISRDNAKNTVYLQMISLKPEVTAVYYCAKKVFGWEYYYWGQGTQVTVSS", "polyreactivity (PSR sort gate)": "high polyreactivity"},
      {"sequence": "QVQLVESGGGLVQAGGSLRLICAASGRIFGYYAMGWYRQAPGKERELVAAISRAGSTYYADSVKGRFTISRDNAKNTVSLQMNSLKPEDTAVYYCAAVRSVQRHYTEMYYWGQVTQVTVSS", "polyreactivity (PSR sort gate)": "high polyreactivity"},
      {"sequence": "QVQLVESGGGLVQAGGSLRLSCAASGSTFFVYAMGWYRQSPGKERELVADITNSGGNTYYADSVKGRFTISRDNAKNTVFLQMISLKPEDTAVYYCSGEYWFTSYDSWGQGTQVTVSS", "polyreactivity (PSR sort gate)": "high polyreactivity"},
      {"sequence": "QVQLVESGGALLQAGGSLRLSCAASGGTFDTYAMGWYRQAPGKERELDAVIRASGGDTYYADSVKGRFTISRDNAKNTVYLQMNSLKPEDTAVYYCAAVLPFKYDYWGQGTQVTVSS", "polyreactivity (PSR sort gate)": "low polyreactivity"},
      {"sequence": "QVQLVESGGGLVQAGGSLRLSCAASGSTFTDNTMGWYRQAPGKERELVAAISGVGSTYYADSVKGRFTISRDNAKNTVYLQLNSLKPEVSAVYYCAKPYYDGRTHFVSWGQGTQVTVSS", "polyreactivity (PSR sort gate)": "low polyreactivity"},
      {"sequence": "QVQLVESGGGLVQAGGSLRLSCAASGSIFGYYTMGWYRQAPGKERELVAGITSTGNTNYADSVKGRFTISRDNAKNTVYLQMNSLKPEDTAVYYCAADSESTWDYGWELEVGYDYWGQGTQVTVSS", "polyreactivity (PSR sort gate)": "low polyreactivity"},
      {"sequence": "QVQLVESGGGLVQAGGSLRLSCAASGSIFHMNAMGWYRQAPGKERELDASISSDGSTYYADSVKGRFTISRDNAKNTVYLQMNSLKPEVTAVYYCNADSQWALKQLSFDYWGQGTQVTVSS", "polyreactivity (PSR sort gate)": "low polyreactivity"},
      {"sequence": "QVQLVESGGGLVQAGGSLRLSCAASGSIFDPNAMGWYRQAPGKERELVAAITSGGGSTYYADSVKGRFTISRDNAKNTVYLQMNSLNPEDTAVYYCNKVFVLPYKFVAWFDYWGQGTQVTVSS", "polyreactivity (PSR sort gate)": "low polyreactivity"},
      {"sequence": "QVQLVESGGGLVQAGGSLRLSSAASGRNFYANAMGWSRQAPGKERYFVAAISWGGGSTNYADSVKGRFTISRDNAKNTGYLQKNSQKPEDTAVYYCATGFYYYLTKTIPYEYEYWGLGTQVTVSS", "polyreactivity (PSR sort gate)": "low polyreactivity"},
      {"sequence": "QVQLVESGGGLVQAGGSLRLSCAASGGNFGRYAMGWYRQAPGKERELVADINWSGGANTNYADSVKGRFTISRDNAKNTVYLQMNSLKPEDTAVYYCAAPSYFTHSGRFDYWGQGTQVTVSS", "polyreactivity (PSR sort gate)": "low polyreactivity"},
      {"sequence": "QVQLVESGGGLVQAGGSLRLSCAASGRIFYSNAMGWYRQAPGKERELVATISTGGSTYAESVKGRFTISRDNAKNTVYLQLISLTPEESAVYYCAVDEWRWRVGAVAYYYWGQGTQVTVSS", "polyreactivity (PSR sort gate)": "low polyreactivity"},
      {"sequence": "QVQLVESGGGLVQAGGSLRLSCAASGSTIRNYAMGWYRQAPGKERELVAAISSGGRTYYADSVKGRFTISRDNAKNTVYLQMNSLKPEDTAVYYCKGRSYSRMYYWGQGTQVTVSS", "polyreactivity (PSR sort gate)": "high polyreactivity"}
    ]}
  ]
}
